Results taken from the DeepSol protein solubility set.

Test: soluble on expression in E. coli; label from the status in PepcDB or PDB records
For “ESKLEGKAAQDIKDEEPGDLGRPKPECEGYDPNALYCICRQPHNNRFMICCDRCEEWFHGDCVGISEARGRLLERNGEDYICPNCTILQVQDETHSETADQQEAKWRPGDADGTDCTSIGTIEQKSSEDQGIKGRIEKAANPSGKKKLKIFQPGPGPVPTQLPVLWQVLEIAVSRSISAFTLLHCISCKVIEAPGASKCIGPGCCHVAQPDSVYCSNDCILKHAAATMKFLSSGKEQKPKPKEKMKMKPEKPSLPKCGAQAGIKISSVHKRPAPEKKETTVKKAVVVPARSEALGKEAACESSTPSWASDHNYNAVKPEKTAAPSPSLLYKSTKEDRRSEEKAAATAASKKTAPPGSTVGKQPAPRNLVPKKSSFANVAAATPAIKKPPSGFKGTIPKRPWLSATPSSGASAARQAGPAPAAATAASKKFPGSAALVGAVRKPVVPSVPMASPAPGRLGAMSAAPSQPNSQIRQNIRRSLKEILWKRVNDSDDLIMTENEVGKIALHIEKEMFNLFQVTDNRYKSKYRSIMFNLKDPKNQGLFHRVLREEISLAKLVRLKPEELVSKELSTWKERPARSVMESRTKLHNESKKTAPRQEAIPDLEDSPPVSDSEEQQESARAVPEKSTAPLLDVFSSMLKDTTSQHRAHLFDLNCKICTGQVPSAEDEPAPKKQKLSASVKKEDLKSKHDSSAPDPAPDSADEVMPEAVPEVASEPGLESASHPNVDRTYFPGPPGDGHPEPSPLEDLSPCPASCGSGVVTTVTVSGRDPRTAPSSSCTAVASAASRPDSTHMVEARQDVPKPVLTSVMVPKSILAKPSSSPDPRYLSVPPSPNISTSESRSPPEGDTTLFLSRLSTIWKGFINMQSVAKFVTKAYPVSGCFDYLSEDLPDTIHIGGRIAPKTVWDYVGKLKSSVSKELCLIRFHPATEEEEVAYISLYSYFSSRGRFGVVANNNRHVKDLYLIPLSAQDPVPSKLLPFEGPGKRRLSGWR”, the “soluble on expression in E. coli” value was “soluble”.
In the case of “MIDITLPLTDIHRHLDGNIRAQTILDLGRQFNIALPAQTLETLIPHVQVTSTEPDLVSFLTKLDWGVKVLASLDACRRVAFENIEDAARNGLHYVELRFSPGYMAMAHQLPIAGVVEAVIDGVRDGCNTFGVEARLIGIMSRTFGEAACLQELDALLAHRENITALDLAGDELGFPGSLFLSHFNRARDAGWHITVHAGEAAGPESIWQAIRELGAERIGHGVKAVEDRALMDFLAQQRIGIESCLTSNIQTSTVASLADHPLKTFLEHGVLASLNTDDPAVQGVDIIHEYHVAAPAAGLSREQIRQAQINGLEIAFLSDSEKRALREKVAEA”, the “soluble on expression in E. coli” value is reported as “not soluble”.
For “MYDMINAKYLGKLIFLDFGQTITSLEETSDNSTFFIADEFGNFGSHYVGVVLEQVRSFNTVVILSYQSFANLRNIGGDNFKSQIINNTSTLIAHRLIDMMEAEEVANLYGVDITCASEIKSLKVGQALVRSISSYYGEIKDWLVQQIDKS”, the “soluble on expression in E. coli” value was “soluble”.
In the case of “MGSDKIHHHHHHMVDVKRNIFLILDDRELTSEEVRSLVGTRRYSEISLKRRSLLEHLRAALPAWAQTRLVHIKDNNDVVALRNVLESCGEQSPALVIAGRAGFLQPERLTQLIERLPYAEEDFTDRLYRPLLVYLKSVHDLHSCWQQFEAEPLHLWPKAWQDCQRLESLEPLDLARIRDFLTFTGGATATRHFNEVLIDNYYYTKRSSDKQKMLAEYSFYGLAPESMRPWLIQPFEFREEGGGASYKMLRYFLADAALQWVHGAFDRDTFMAFIERLLFFIAERPRKACAREESAAVARDMFVTKVSARIEAFLAMEEGRRINALAASASPMLDVQAMLKRYLALYQRHERAFAFDYMVVGHGDPCFSNVLYDQQRYLLKLIDPKGAATEADLWTNPLYDLCKISHSVLGDYDFINNGLYRVGFTDANALKLAFSHRNHDDLKPIFSSLVGKMGMDYRIMRLGEASLFLSMLPLHIDYPNKILAFMLKAHEILREVEGEARV”, the “soluble on expression in E. coli” value is reported as “not soluble”.
For “MSDNDDDFMCDDDEDYGLEYSEDSNSEPDVDLENQYYNSKALKEEEPKAALASFQKVLDLENGEKGEWGFKALKQMIKINFRLCNYDEMMVRYKQLLTYIKSAVTRNHSEKSINSILDYISTSKNMALLQNFYETTLDALRDAKNDRLWFKTNTKLGKLYFDRSDFTKLQKILKQLHQSCQTDDGEDDLKKGTQLLEIYALEIQMYTVQKNNKKLKALYEQSLHIKSAIPHPLIMGVIRECGGKMHLREGEFEKAHTDFFEAFKNYDESGSPRRTTCLKYLVLANMLMKSGINPFDSQEAKPYKNDPEILAMTNLVNSYQNNDINEFETILRQHRSNIMADQFIREHIEDLLRNIRTQVLIKLIRPYKNIAIPFIANALNIEPAEVESLLVSCILDDTIKGRIDQVNQVLQLDKINSSASRYNALEKWSNQIQSLQFAVVQKMA”, the “soluble on expression in E. coli” value was “soluble”.
For “MGSDKIHHHHHHMAGVMSRRLDVDALRALVAIERHGGVTRAAEILGLSQSAVSHKIRRLETSLDCEILTRKANAPMFTTAGQDLLGYARRILGIHDEAVLSLSKSPLQGKIALGMTEDTTCTDLSRILGRFRRLYPEVSVRTQVRMSLVLQEQLSQGALDAAIIQVFQHEVRPADILLFRETLHWVKSRDLVLSAGKPVPFLSFDENCFYRRWGIDVGQDEDTVLETVFECSSAAGIIAGVTAGLGVALLSQRYLQPAMEIVDDKFPKPPDLAYVIRRARVPRNPALETLVREIEAEVKRYGTLQIAV”, the “soluble on expression in E. coli” value was “not soluble”.
With “MIFSKKDIQEVLPADVTGRSVAHPKRWLVALVRISHEKKTSERLSKMGIENFLPVQQEVHQWSDRRKVVERVLLPMMIFVHVDMYEQKEVLTLGSISRYMVLRGESTPAVIPDEQMHRFKFMLDYSDEAINMSTTPLSPGTKIKVIKGPLSGLQGELVTVNGKSKVAVRLTMLGCAFVDIPVGCVEPLEK” the “soluble on expression in E. coli” value was “not soluble”.
With “MGSDKIHHHHHHMFHPIEEALDALKKGEVIIVVDDEDRENEGDFVALAEHATPEVINFMATHGRGLICTPLSEEIADRLDLHPMVEHNTDSHHTAFTVSIDHRETKTGISAQERSFTVQALLDSKSVPSDFQRPGHIFPLIAKKGGVLKRAGHTEAAVDLAEACGSPGAGVICEIMNEDGTMARVPELIEIAKKHQLKMITIKDLIQYRYNLTTLVEREVDITLPTDFGTFKVYGYTNEVDGKEHVAFVMGDVPFGEEPVLVRVHSECLTGDVFGSHRCDCGPQLHAALNQIAAEGRGVLLYLRQEGRGIGLINKLKAYKLQEQGYDTVEANEALGFLPDLRNYGIGAQILRDLGVRNMKLLTNNPRKIAGLEGYGLSISERVPLQMEAKEHNKKYLQTKMNKLGHLLHF” the “soluble on expression in E. coli” value was “not soluble”.
In the case of “MRNFDLIRLTEAQWHDRESAHQLRADRLTADHMKRRRAGISHPVYDFLFEYYPVRVAHMKKWHPGVGVGIEGNPPHSRWKGYTTIDDVTVVDVEALKKKRSSTLHYVSNLLKQTQLNPTHFDCFGLHEWAMVYQTSQPRHALPLRLGAQGSNKVVESHNIRCTHFDAFRFFTEPAVPLNFQVLTRENQPSCEQPGCLHAMMDLYKWSAKLGPLIPGDLWLDTFELAWDCRVLDMEASPYDCTDYGLGIVPIETAEGKAEYVRRQRELSERGQLLRQRLVAELDRIDRFTLTS”, the “soluble on expression in E. coli” value is reported as “not soluble”.
In the case of “MAYWLVKSEPSVWSWDQQVAKGAAGEAWTGVRNHSAKLHMVAMRRGDRAFYYHSNEGKEIVGIAEIIREAYPDPTDASGKFVCVDIKADKPLKTPVTLAAVKAEPRLADMALMKYSRLSVQPVTAEEWKLVCKMGGLLEHHHHHH”, the “soluble on expression in E. coli” value is reported as “not soluble”.
In the case of “PEKPAKTQKTSLDEALQWRDSLDKLLQNNYGLASFKSFLKSEFSEENLEFWIACEDYKKIKSPAKMAEKAKQIYEEFIQTEAPKEVNIDHFTKDITMKNLVEPSLSSFDMAQKRIHALMEKDSLPRFVRSEFYQELI”, the “soluble on expression in E. coli” value is reported as “soluble”.
In the case of “MDAAIKKIPYGMTDFERIILENYYYVDKTQYIAKVEKVTSFFFFVRPRRFGKSLFLNMLGLYYDINQKDKFEKIFGNLYIGKHPTPDRNKYLVLTLNFSSVAANMDRLEETFNTYCKIVMDGFAERNAHLLGKEAVEKLHELKTGDALLGSLCQSAQNKGQKIYLILDEYDNFANNILVDYGNKRYRSITHGSGFFRSFLKVVKDYSSSVIERIFLTGVSPVTMDDLTSGFNIADNYSSSPIFNNMMGFNEQEVRTLIDYYKSYRELPHTTDELITIMKPWYDNYCFAMKALKEPSMYNSDMVLYFMNHYMLNEDIPDNMLDANIRTDYNKLRHLIHVDKTFGENASVVQEIVEKGSTTGIIANSFPAEDIIKPENFKSLLYYYGMLTISGMEMGEPILSVPNWAVREQLYGYMADIYKDSADLYLETDKLVDRMKRMAYKGEWENCFTYIADRLNAQSSVRDFIEGEAYVKTFILAYLGLTHYYIARPEYESNKGYADIFLQPRLLQLPDMVYSYCIEVKYAKRDASDTEIEKLLSNAKIQLKQYAASEWIHQDKGTTELKSIALVFQGWKLVRVEEV”, the “soluble on expression in E. coli” value is reported as “not soluble”.
In the case of “MGHHHHHHSHMSEPGKGDDCLELESSMAESRLRAPDLGVSRCLGKCQKNSPGARKHPFSGKSFYLDLPAGKNLQFLTGAIQQLGGVIEGFLSKEVSYIVSSRREVKAESSGKSHRGCPSPSPSEVRVETSAMVDPKGSHPRPSRKPVDSVPLSRGKELLQKAIRNQVSWGKMGQSRWSPA”, the “soluble on expression in E. coli” value is reported as “not soluble”.
In the case of “MKLVFYGAGNMAQAIFTGIINSNNLNANDIYLTNKSNEQALKSFAEKLGVNYSYDDEALLKDADYVFLGTKPHDFENLANRIREHITNDNRFISIMAGLSIDYIRQQLNTNNPLARIMPNTNAQVGHSVTGISFSNNFDPKSKNEVDELINAFGSVIEVSEEHLHQVTAITGSGPAFLYHVFEQYVKAGTELGLERNQVEESIRNLIIGTSKMIERSDLSMSQLRKNITSKGGTTQAGLDALSQYDIVSMFEDCLGAAVNRSMELSHKEDELEHHHHHH”, the “soluble on expression in E. coli” value is reported as “soluble”.
With “MSLEVEVYRDPLSGFKDNKKSAPVKLNDEQQFALNQITAAIDKRKAETFLLEGITGSGKTEVYLHAISKALEQGRNALMLVPEISLTPQMVRQVKSRFGQAVAVLHSALSEGEKYDEWRRIRRGETRVVVGARSAVFAPLDNIGLIVIDEEHESSYKQETDPRYNARDVAIWRSKYHHCPLVLGSATPSLGSRARAQKNVYKLLRLTKRANNKKLPKVNLIDLKHVQFAGGQFDLSVNLVDAIKKRLDNKEQVILMLNRRGFANFMLCRECGFVLKCPNCDVSLNLHKDTNSMQCHYCGHTERVPSRCPNCQSSKIRFLGTGTQKVQEELEELLPGARILRMDVDTTRKKGSYKRILDSFGNHEADILLGTQMIAKGLDFPNVTLVGVINADTGLWLSDYNASEKTFELLTQVAGRAGRANKEGEVLIQTYNPEHYAIQLAQTQNYERFYGYEMNVRHAGNYPPYFFTVLISIAAKKEQNAAREAFRIKRYLSQHLHEEMIILGPTPSAISRVKNQYYYQILVKYKKEPNIKELLHHIQDSAQEAKKYGLNVFIDNEPEKIMEGHHHHHH” the “soluble on expression in E. coli” value was “not soluble”.
In the case of “MHVIDLSYFVKIYRSKNKHFSVNFLRHLHRAGDLHLSGTTRCIYEDVIMKKCLTLLIATVLSGISLTAYAAQPMSNLDSGQLRPAGTVSATGASNLSDLEDKLAEKAREQGAKGYVINSAGGNDQMLGTATIYKLEHHHHHH”, the “soluble on expression in E. coli” value is reported as “not soluble”.
For “AHHHHHHGSRVLVTTWGNPFQWEPITYEYRGIKVKSRNTLPILVKTLEPERILILVADTMANYYDSGKNKPEIEEKSFSSYSEVVEDTKERILWHIKEEVIEELREEDPELAKKIENMLKDERITIEVLPGVGVFGNITVEGEMLDFYYYATYKLAEWLPVQNNLEVYLDLTHGINFMPTFTYRALRNLLGLLAYLYNVKFEIVNSEPYPLGVSQEIREDTILHIREIGEGVVRPRPQYSPVEGKLYWNAFISSVANGFPLVFASFYPNIRDVEDYLNKKLEEFLVGIEVGEREDGKPYVKREKALDRSFKNASKLYYALRVFNTKFQNYPKKEVPIEEIMEISKIFESLPRIGIILERQVEWLRNLVYGRLWYENGEQKIKKGLLEIIKDKKDKRKEAEALKKGKTISLAEAAKLTRIFSPSGERIETIESPNVVRNFIAHSGFEYNIVYVKYDRLSDRLYFFYKDKEKAANLAYEALLYRGEKE”, the “soluble on expression in E. coli” value was “soluble”.
In the case of “MTTAHISGDWRTRYQHVTSFYFKTNHKVWCKVILSLLHTHIPMIIFIDMKGVNMDLIIQTFPLDGKTLYYVQCPVCKNNRILNSGANVSRIISDDTFRKLCGCTCDVKPATSKVEAPKQVKKAAVKKEAAPKRTGKVLTAVINGKEMTVKEIAEAYDISTSTVRQRINAGKPESEIIAPTKKK”, the “soluble on expression in E. coli” value is reported as “not soluble”.
